One data set has as its target Factor IXa (Homo sapiens, UniProt P00740). The data set is described as follows: Serine protease specificity, FIXa. Format: biochemical. To be noted: FIXa (3 μM)/Spectrozyme fIXa. As to the method:
(§1) Serine protease specificity—The selectivity profile of anticoagulant proteins and their complex was examined against 12 serine proteases—procoagulant serine proteases (FIXa, FXa, FXIa, FXIIa, plasma kallikrein and thrombin), anticoagulant serine protease (APC), fibrinolytic serine proteases (urokinase, t-PA and plasmin) and classical serine proteases (trypsin and chymotrypsin). Various concentrations of purified hemextin A/hemextin B and reconstituted hemextin AB complex were preincubated with each of the enzymes (Table 1) for a period of five minutes at a temperature of 37° C., followed by the addition of appropriate chromogenic substrate.
(§2) For studies with FXIa, kallikrein and urokinase, the appropriate substrates were determined prior to their screening against the inhibitors. For FXIa, the Vmax for the amidolytic activity corresponding to the chromogenic substrates S-2266, S-2302 and S-2366 was determined. S-2302 was the substrate with the highest Vmax and thus was used in the screening studies. Similar studies with kallikrein and urokinase were carried out with substrates S-2266, S-2302 and S-2288 for kallikrein and S-2444 and S-2484 for urokinase. In a total volume of 200 μl in the individual wells of the microtiter plate, final concentrations of FVIIa (300 nM)/S-2288, FVIIa-sTF (30 nM)/S-2288, FXa (0.75 nM)/S-2765, α-thrombin (0.66 nM)/S-2238, plasmin (2 nM)/S-2366, FIXa (3 μM)/spectrozyme®fIXa, FXIa (0.34 nM)/S-2366, FXIIa (0.4 nM)/S-2302, recombinant tissue plasminogen activator (80 nM)/S-2288, activated protein C (0.34 nM)/S-2366, urokinase/S-2444, plasma kallikrein (0.4 nM)/S-2302, trypsin (2.17 nM)/S-2222 and chymotrypsin (0.4 nM)/S-2586 were measured. The kinetic rate of substrate hydrolysis (mOD/min) was measured over 5 min.

The target in a further data set is FXa (Homo sapiens, UniProt P00742). The data set is described as follows: Serine protease specificity, FXa. It counts as biochemical. To be noted: FXa (0.75 nM)/S-2765. As to the method:
as §1, §2

For the next data set, the target named is Factor XIa (Homo sapiens, UniProt P03951). The data set is described as follows: Serine protease specificity, FXIa. It counts as biochemical. The conditions noted are these: FXIa (0.34 nM). As to the method: as §1, §2
For a further data set, the system named is Factor XIIa. The data set is described as follows: Serine protease specificity, FXIIa. The conditions noted are these: FXIIa (0.4 nM)/S-2302. Format: biochemical. As to the method:
as §1, §2

A further data set concerns the target Plasma Kallikrein (Homo sapiens, UniProt P03952). The data set is described as follows: Serine protease specificity, plasma kallikrein. It counts as biochemical. To be noted: for Observed Effect, plasma kallikrein amidolytic activity: plasma kallikrein (0.4 nM)/S-2302; for inhibitory potency towards FVIIa versus plasma kallikrein: FVIIa in the absence or presence of sTF. As for the experimental part:
as §1, §2

The target in the next data set is T1, Thrombin (Homo sapiens, UniProt P00734).
T1 construct: FXa performs a proteolytic cleavage of prothrombin to thrombin
The data set is described as follows: Serine protease specificity, thrombin. It counts as biochemical. To be noted: α-thrombin (0.66 nM)/S-2238. As to the method: as §1, §2

For a further data set, the target named is Urokinase (Homo sapiens, UniProt P00749). The data set is described as follows: Serine protease specificity, urokinase. It counts as biochemical. The conditions noted are these: urokinase/S-2444. As for the experimental part:
as §1, §2

The next data set has as its system Chymotrypsin. The data set is described as follows: Serine protease specificity, chymotrypsin. To be noted: chymotrypsin (0.4 nM)/S-2586. It counts as biochemical. As for the experimental part: as §1, §2
The subject of another data set is Trypsin. The data set is described as follows: Serine protease specificity, trypsin. Format: biochemical. The conditions noted are these: trypsin (2.17 nM)/S-2222. As for the experimental part: as §1, §2
The nature of data set [1]: Molecular diameter by GEMMA. It counts as physicochemical. The conditions noted are these: gas phase, 20 mM ammonium acetate (pH 7.4). As for the experimental part:
(A) Gas Phase Electrophoretic Mobility Macromolecule Analyzer (GEMMA)—The molecular diameters in the gas phase were determined with GEMMA (71, 72) using a nano-differential mobility analyzer, model 3980 (TSI, St Paul, Minn., USA), and a standard CPC type 3025 (TSI, St Paul, Minn., USA). The instrument was operated in the ‘cone jet’ mode with an operating voltage between 2.5 and 3.0 kV, resulting in currents from 200 to 300 nA. Filtered ambient air at 2 l/min and a concentric sheath gas flow of filtered CO2 at 0.1/min was used to stabilize the electrospray against corona discharge. Sample solutions of hemextin A (4 ng/ml) and hemextin B (4 ng/ml) were prepared in 20 mM ammonium acetate (pH 7.4) immediately prior to the experiment. Hemextin AB complex (4.5 ng/ml) was reconstituted in the above buffer and was incubated at 37° C. for 10 min. Another three-finger protein, toxin C isolated and purified from the same venom was used as a control in the GEMMA experiments. The samples were infused into the electrospray chamber with an inlet flow rate of 100 nl/min. Twenty scans over the whole EM diameter range (0 to 25 nm) were recorded and averaged to obtain a GEMMA spectrum. No smoothing algorithm was applied for the data presentation.

Data set [2] in a line: Hydrodynamic diameter by DLS. It counts as physicochemical. The conditions noted are these: for hydrodynamic diameter (DLS): 50 mM Tris-HCl buffer (pH 7.4), 25° C.; for hydrodynamic diameter (DLS) in buffers of high ionic strength: 75 mM and 150 mM NaCl. As to the method: (B) Dynamic Light Scattering (DLS)—Complex formation studies with DLS were carried out at 25° C. using a BI200SM instrument (Brookhaven Instruments Corporation, Holstvile, N.Y., USA). A vertically polarized argon ion laser (514.2 nm, 75 mW; NEC model GLG-3112) was used as the light source. Sample solutions of hemextin A (4 mM), hemextin B (4.1 mM) and hemextin AB complex (2.3 mM) were prepared immediately prior to the experiment. The hydrodynamic diameter for the hemextin AB complex and the individual hemextins were recorded at 25° C. in solutions of different ionic strengths and at different glycerol concentrations. The ionic strengths were varied by the addition of NaCl. From the measured translational diffusion coefficient (DT), the hydrodynamic radius (RH) can be calculated using the Stokes-Einstein relation: […]
where kB is the Boltzmann constant, T is the temperature in Kelvin and η being the viscosity of the solvent. The intensity-intensity time correlation functions were obtained with a BI-9000 digital correlator equipped with the instrument. The particle size and size distribution were obtained by analyzing the field correlation function |g^(1)(τ)| using constrained regularized CONTIN method (73).

“And” between values parts separate entries of the source, which are not always exact repeats. Equal values may be shown once. “Also recorded” adds a separate entry of the source.

Factor XIIa, sequence (P00748 373-615 limits assumed): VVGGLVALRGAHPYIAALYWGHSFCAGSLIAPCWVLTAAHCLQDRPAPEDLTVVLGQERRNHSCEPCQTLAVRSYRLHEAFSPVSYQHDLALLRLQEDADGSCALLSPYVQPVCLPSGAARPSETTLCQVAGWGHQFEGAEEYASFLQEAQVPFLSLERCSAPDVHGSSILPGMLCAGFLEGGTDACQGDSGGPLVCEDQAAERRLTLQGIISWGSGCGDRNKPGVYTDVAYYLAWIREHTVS
Factor XIa, sequence (P03951 388-625 limits assumed): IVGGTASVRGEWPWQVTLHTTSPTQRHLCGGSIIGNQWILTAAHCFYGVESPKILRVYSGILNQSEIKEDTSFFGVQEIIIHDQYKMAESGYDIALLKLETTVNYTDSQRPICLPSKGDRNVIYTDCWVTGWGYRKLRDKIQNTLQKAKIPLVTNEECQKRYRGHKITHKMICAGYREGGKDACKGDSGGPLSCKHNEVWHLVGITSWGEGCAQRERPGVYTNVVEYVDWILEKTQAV
Factor XIa, sequence (P03951 19-387 limits assumed): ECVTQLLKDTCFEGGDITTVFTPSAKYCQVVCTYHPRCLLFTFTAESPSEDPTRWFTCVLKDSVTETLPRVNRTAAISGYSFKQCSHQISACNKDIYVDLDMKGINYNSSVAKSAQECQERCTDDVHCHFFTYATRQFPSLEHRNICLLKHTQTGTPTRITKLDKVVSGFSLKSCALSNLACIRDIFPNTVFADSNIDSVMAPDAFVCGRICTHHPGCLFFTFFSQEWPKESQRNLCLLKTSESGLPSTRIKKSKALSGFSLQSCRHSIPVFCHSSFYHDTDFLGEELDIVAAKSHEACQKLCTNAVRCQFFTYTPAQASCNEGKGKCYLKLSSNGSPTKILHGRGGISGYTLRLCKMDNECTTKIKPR
FXa, sequence (P00742 41-179 limits assumed): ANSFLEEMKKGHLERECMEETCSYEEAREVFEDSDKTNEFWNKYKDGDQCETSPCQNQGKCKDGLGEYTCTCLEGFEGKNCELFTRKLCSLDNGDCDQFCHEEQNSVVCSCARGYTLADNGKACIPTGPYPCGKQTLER
FXa, sequence (P00742 235-488 limits assumed): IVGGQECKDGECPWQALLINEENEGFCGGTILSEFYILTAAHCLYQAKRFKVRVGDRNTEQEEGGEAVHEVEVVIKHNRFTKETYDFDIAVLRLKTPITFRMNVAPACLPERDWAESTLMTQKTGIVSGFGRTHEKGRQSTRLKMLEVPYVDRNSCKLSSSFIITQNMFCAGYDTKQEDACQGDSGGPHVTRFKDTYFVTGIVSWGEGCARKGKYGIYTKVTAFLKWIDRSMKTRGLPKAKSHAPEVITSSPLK
Plasma Kallikrein, sequence (P03952 391-638 limits assumed, species assumed): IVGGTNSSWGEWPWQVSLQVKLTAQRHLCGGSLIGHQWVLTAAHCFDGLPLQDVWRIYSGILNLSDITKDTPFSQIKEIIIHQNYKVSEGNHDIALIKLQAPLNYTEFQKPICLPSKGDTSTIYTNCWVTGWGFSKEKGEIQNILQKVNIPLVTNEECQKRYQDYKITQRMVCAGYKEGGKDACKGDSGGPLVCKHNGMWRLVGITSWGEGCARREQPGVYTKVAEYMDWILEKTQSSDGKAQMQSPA
Plasma Kallikrein, sequence (P03952 20-390 limits assumed, species assumed): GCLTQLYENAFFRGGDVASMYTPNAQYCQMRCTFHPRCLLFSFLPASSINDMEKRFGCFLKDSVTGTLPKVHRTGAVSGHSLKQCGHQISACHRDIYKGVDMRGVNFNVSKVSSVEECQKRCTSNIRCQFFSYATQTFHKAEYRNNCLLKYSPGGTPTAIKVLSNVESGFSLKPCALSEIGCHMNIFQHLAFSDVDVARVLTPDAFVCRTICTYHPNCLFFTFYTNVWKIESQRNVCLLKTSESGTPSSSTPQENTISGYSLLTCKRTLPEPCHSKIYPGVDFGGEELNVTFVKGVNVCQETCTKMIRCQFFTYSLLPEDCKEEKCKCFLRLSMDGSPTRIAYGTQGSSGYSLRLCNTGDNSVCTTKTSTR

B1: hemextin B (protein)
chain: LKCKNKVVPFLKCKNKVVPFLCYKMTLKKVPKIPIKRGCTDACPKSSLLVNVMCCKTDKCN
With B1, the “Observed Effect, Factor IXa amidolytic activity” value in the data set with Factor IXa was “no inhibitory activity”. Besides, in the data set with FXa, the “Observed Effect, FXa amidolytic activity” value is “no inhibitory activity”. Moreover, the “Observed Effect, Factor XIa amidolytic activity” value with Factor XIa is given as “no inhibitory activity”. In addition, the “Observed Effect, Factor XIIa amidolytic activity” value in the data set with Factor XIIa is recorded as “no inhibitory activity”. Moreover, the “Observed Effect, plasma kallikrein amidolytic activity” value with Plasma Kallikrein is “did not inhibit”. For the same molecule, the “Observed Effect, thrombin amidolytic activity” value with Thrombin is given as “no inhibitory activity”. In the data set with Urokinase, the “Observed Effect, urokinase amidolytic activity” value was “no inhibitory activity”. In the data set on Chymotrypsin, the “Observed Effect, chymotrypsin amidolytic activity” value is given as “no inhibitory activity”. The “Observed Effect, trypsin amidolytic activity” value in the data set with Trypsin is “no inhibitory activity”. The “apparent molecular diameter (GEMMA)” value in data set [1] was 8.82±0.42 nm. Further, in [2], the “hydrodynamic diameter (DLS)” value was 9.9 nm and the “hydrodynamic diameter (DLS) in buffers of high ionic strength” value was “No change”.

B2: hemextin A (protein)
chain: LKCKNKLVPFLSKTCPEGKNLCYKMTMLKMPKIPIKRGCTDACPKSSLLVKVVCCNKDKCN
For B2, the “Observed Effect, Factor IXa amidolytic activity” value with Factor IXa is given as “no inhibitory activity”. In addition, in the data set with FXa, the “Observed Effect, FXa amidolytic activity” value was “no inhibitory activity”. The “Observed Effect, Factor XIa amidolytic activity” value with Factor XIa was “no inhibitory activity”. Moreover, the “Observed Effect, Factor XIIa amidolytic activity” value in the data set on Factor XIIa was “no inhibitory activity”. In addition, in the data set with Plasma Kallikrein, the “inhibitory potency towards FVIIa versus plasma kallikrein” value is reported as “at least 50 times” and the “Observed Effect, plasma kallikrein amidolytic activity” value is reported as “inhibit plasma kallikrein in a dose-dependant manner; also recorded: inhibit the amidolytic activity of plasma kallikrein”. Besides, the “Observed Effect, thrombin amidolytic activity” value with Thrombin is “no inhibitory activity”. In addition, in the data set with Urokinase, the “Observed Effect, urokinase amidolytic activity” value is “no inhibitory activity”. For the same molecule, the “Observed Effect, chymotrypsin amidolytic activity” value in the data set with Chymotrypsin is given as “no inhibitory activity”. Besides, the “Observed Effect, trypsin amidolytic activity” value with Trypsin is reported as “no inhibitory activity”. The “apparent molecular diameter (GEMMA)” value in data set [1] worked out at 10.2±0.38 nm. In data set [2], the “hydrodynamic diameter (DLS)” value was 10.3 nm and 10.4 nm; the “hydrodynamic diameter (DLS) in buffers of high ionic strength” value was determined as 11.57 nm.

B3: hemextin AB complex: synergistic 1:1 tetrameric complex of hemextin A and hemextin B, reconstituted from equimolar proteins (protein)
chain 1: LKCKNKLVPFLSKTCPEGKNLCYKMTMLKMPKIPIKRGCTDACPKSSLLVKVVCCNKDKCN
chain 2: LKCKNKVVPFLKCKNKVVPFLCYKMTLKKVPKIPIKRGCTDACPKSSLLVNVMCCKTDKCN
B3: in the data set with Factor IXa, the “Observed Effect, Factor IXa amidolytic activity” value is listed as “no inhibitory activity”. In the data set with FXa, the “Observed Effect, FXa amidolytic activity” value is listed as “no inhibitory activity”. For the same molecule, the “Observed Effect, Factor XIa amidolytic activity” value in the data set with Factor XIa is listed as “no inhibitory activity”. Besides, the “Observed Effect, Factor XIIa amidolytic activity” value in the data set with Factor XIIa is reported as “no inhibitory activity”. Further, in the data set with Plasma Kallikrein, the “inhibitory potency towards FVIIa versus plasma kallikrein” value is listed as “at least 50 times” and the “Observed Effect, plasma kallikrein amidolytic activity” value is on record as “inhibit plasma kallikrein in a dose-dependant manner; also recorded: inhibit the amidolytic activity of plasma kallikrein”. Further, the “Observed Effect, thrombin amidolytic activity” value in the data set with Thrombin is “no inhibitory activity”. The “Observed Effect, urokinase amidolytic activity” value with Urokinase is given as “no inhibitory activity”. Also, the “Observed Effect, chymotrypsin amidolytic activity” value in the data set with Chymotrypsin is on record as “no inhibitory activity”. Also, the “Observed Effect, trypsin amidolytic activity” value in the data set with Trypsin is reported as “no inhibitory activity”. The “apparent molecular diameter (GEMMA)” value in [1] stood at 16.3±0.43 nm. Also, in [2], the “hydrodynamic diameter (DLS)” value is reported as 16.8 nm.

The record behind these values is patent US20090180995A1, “NOVEL ANTICOAGULANT POLYPEPTIDES AND COMPLEX” (National University of Singapore, priority 2005, published 2009).
